In patent US20240059799A1 (Pfizer, published 2024):
Numbering of substitutions follows the chain as printed.

Assays:
cynomolgus monkey IL-12 = target: T1, cynomolgus monkey IL-12 (cynomolgus monkey); test: cell-based or functional assay
T1 chain 1: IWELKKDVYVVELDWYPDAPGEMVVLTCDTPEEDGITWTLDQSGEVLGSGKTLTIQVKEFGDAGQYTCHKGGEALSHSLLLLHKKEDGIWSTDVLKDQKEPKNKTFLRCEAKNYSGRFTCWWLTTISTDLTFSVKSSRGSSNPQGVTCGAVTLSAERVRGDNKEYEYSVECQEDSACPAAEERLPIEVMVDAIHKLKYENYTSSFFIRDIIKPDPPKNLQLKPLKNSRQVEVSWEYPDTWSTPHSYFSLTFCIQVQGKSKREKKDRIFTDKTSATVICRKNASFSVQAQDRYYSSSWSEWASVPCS
T1 chain 2: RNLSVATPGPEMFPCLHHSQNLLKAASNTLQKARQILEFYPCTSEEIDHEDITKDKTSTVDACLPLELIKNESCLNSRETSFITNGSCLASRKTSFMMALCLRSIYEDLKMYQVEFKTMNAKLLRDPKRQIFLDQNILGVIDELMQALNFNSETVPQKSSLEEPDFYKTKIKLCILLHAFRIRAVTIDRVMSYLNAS

cynomolgus monkey IL-23 = target: T2, cynomolgus monkey IL-23 (cynomolgus monkey, limits assumed); test: cell-based or functional assay
T2 chain 1: T1 chain 1
T2 chain 2: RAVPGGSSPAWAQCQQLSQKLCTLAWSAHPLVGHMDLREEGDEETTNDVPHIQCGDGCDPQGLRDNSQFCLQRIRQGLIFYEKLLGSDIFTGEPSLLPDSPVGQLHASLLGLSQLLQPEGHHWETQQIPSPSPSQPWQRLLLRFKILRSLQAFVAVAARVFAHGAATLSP

human IL-23 = target: T3, human IL-23 (human, UniProt P29460 23-328; Q9NPF7 20-189); test: SPR, 37 C; antibody captured by anti-human Fc, human IL-23 injected
T3 construct: also called recombinant human IL-23 (p40/p19)
T3 sequence 1: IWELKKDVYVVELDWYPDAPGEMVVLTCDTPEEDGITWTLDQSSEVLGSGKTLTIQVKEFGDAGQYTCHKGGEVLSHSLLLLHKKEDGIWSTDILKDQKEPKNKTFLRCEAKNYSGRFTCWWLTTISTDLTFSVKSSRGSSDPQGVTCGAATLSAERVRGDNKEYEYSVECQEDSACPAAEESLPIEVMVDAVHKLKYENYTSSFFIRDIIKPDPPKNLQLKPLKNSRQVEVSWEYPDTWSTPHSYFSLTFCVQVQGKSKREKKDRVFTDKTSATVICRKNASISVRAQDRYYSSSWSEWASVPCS
T3 sequence 2: T2 chain 2 with A12T, R75H, P131L
Description: SPR was utilized to determine if the affinity constants of each arm of the bispecific variants binding human IL-23, containing the p40 subunit, and human TL1A were the same for each bispecific approach. For the analysis of the p40 binding arm, kinetic assays were conducted at 37° C. using a collection rate of 10 Hz on a Biacore™ 8 K+ instrument (GE Healthcare). An anti-human IgG antibody (anti-human Fc, GE Healthcare, 22-0648-88) was amine coupled to all four flow cells of a carboxymethylated dextran coated sensor chip (GE Healthcare,) using the manufacturer's recommended protocol. […] For the analysis of the TL1A binding arm, kinetic assays were conducted at 37° C. using a collection rate of 10 Hz on a Biacore™ T200 instrument (GE Healthcare).
As described above in EXAMPLE 12, SPR was utilized to determine if the affinity constants of each arm of the bispecific variants binding human IL-23, containing the p40 subunit, and human TL1A were the same for each bispecific variant.

B1: p40TL1A-0033 bispecific antibody (bispecific antibody, human IgG1, kappa)
heavy: EVQLVQSGAEVKKPGESLKISCKGSGYSFTTYWLGWVRQMPGKGLDWIGIMSPVDSDIRYSPSFQGQVTMSVDKSITTAYLQWNSLKASDTAMYYCARRRPGQGYFDFWGQGTLVTVSSASTKGPSVFPLAPSSKSTSGGTAALGCLVKDYFPEPVTVSWNSGALTSGVHTFPAVLQSSGLYSLSSVVTVPSSSLGTQTYICNVNHKPSNTKVDKKVEPKSCDKTHTCPPCPAPEAAGAPSVFLFPPKPKDTLMISRTPEVTCVVVDVSHEDPEVKFNWYVDGVEVHNAKTKPREEQYNSTYRVVSVLTVLHQDWLNGKEYKCKVSNKALPAPIEKTISKAKGQPREPQVCTLPPSREEMTKNQVSLWCLVKGFYPSDIAVEWESNGQPENNYKTTPPVLDSDGSFFLYSKLTVDKSRWQQGNVFSCSVLHEALHSHYTQKSLSLSPGK
light: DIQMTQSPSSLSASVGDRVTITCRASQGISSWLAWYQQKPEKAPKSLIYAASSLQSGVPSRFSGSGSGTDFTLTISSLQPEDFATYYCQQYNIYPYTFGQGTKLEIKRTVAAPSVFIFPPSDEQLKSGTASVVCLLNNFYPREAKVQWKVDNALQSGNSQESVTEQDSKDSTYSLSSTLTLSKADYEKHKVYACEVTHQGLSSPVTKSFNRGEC
chain 1: not shown
chain 2: QVQLVQSGAEVKKPGASVKVSCKASGYDYTYYGISWVRQAPGQGLEWMGWISTYNTGTHYAPSLQGRVTMTTDTSTSTAYMELRSLRSDDTAVYYCARESYYGSGAFRGGMDVWGQGTTVTVSSASTKGPSVFPLAPSSKSTSGGTAALGCLVKDYFPEPVTVSWNSGALTSGVHTFPAVLQSSGLYSLSSVVTVPSSSLGTQTYICNVNHKPSNTKVDKKVEPKSC
notes: Single cell KiH, modified Fd format; IgG1 effector-function-minimized Fc with LS mutations
KIT-225 STAT4 phosphorylation, Cynomolgus Monkey IL-12 IC50 (cynomolgus monkey IL-12): 0.95 nM | KIT-225 STAT3 phosphorylation, Cynomolgus Monkey IL-23 IC50 (cynomolgus monkey IL-23): 4.34 nM | koff (human IL-23): 0.00056 s⁻¹ | kon (human IL-23): 2.28e+06 M⁻¹ s⁻¹
